From article PMC4258057

Experiments:
[1] = biological target: T1, SACE_7301 (Saccharopolyspora erythraea A226?) (UniProt A4FQY4); test: EMSA; settings: 10 mM Tris pH 7.5, 5 mM MgCl2, 50 mM EDTA (so in the source), 60 mM KCl, 10 mM DTT, 10% glycerol, 150 ng probe (legend: 10 ng), 0.5-4 uM protein; on ice 10 min; 8% …
T1 sequence: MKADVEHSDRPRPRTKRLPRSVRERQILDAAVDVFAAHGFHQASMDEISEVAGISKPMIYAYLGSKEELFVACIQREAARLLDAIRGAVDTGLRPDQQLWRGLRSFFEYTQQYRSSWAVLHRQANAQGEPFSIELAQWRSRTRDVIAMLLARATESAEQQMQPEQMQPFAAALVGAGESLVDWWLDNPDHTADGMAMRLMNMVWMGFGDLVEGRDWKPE

[2] = biological target: T2, BldD (Saccharopolyspora erythraea A226?) (UniProt A4FBF9); test: EMSA; settings: 10 mM Tris pH 7.5, 5 mM MgCl2, 50 mM EDTA (so in the source), 60 mM KCl, 10 mM DTT, 10% glycerol, 150 ng probe (legend: 10 ng), 0.5-4 uM protein; on ice 10 min; 8% …
T2 sequence: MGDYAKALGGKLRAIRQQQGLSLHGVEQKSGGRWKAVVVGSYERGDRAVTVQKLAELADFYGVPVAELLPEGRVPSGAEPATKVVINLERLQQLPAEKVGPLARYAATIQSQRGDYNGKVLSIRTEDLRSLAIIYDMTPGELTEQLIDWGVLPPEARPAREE

GCGAGTGTCCGTTCGAGTGGCGGCTTGCGCCCGATGCTAGTCGCGGTTGATCGGCGATCGCAGGTGCACGCGGTCGATCTTGACGGCTGGCGAGAGGTGCGGGGAGGATCTGACCGACGCGGTCCACACGTGGCACCGCGATGCTGTTGTGGGCTGGACAATCGTGCCGGTTGGTAGGATCCAGCG (double strand) [PermE promoter fragment]
binding [1]: binds | binding [2]: binds

GCGTCCCCCTACTCGACGACCACGCAATGGGCGAACAATATAGGAAGGATCAAGAGGTTGACATCGCCTCGTCGAGCCAACGAACCTGTGAACATCTGCATGTTGACAAGATCAACGGCGGCTACCTACTGTGGTGGCCCAGTGACGGGTTGCCGCACATCGCGCTGGGGAGATTCTTTGAATTTCGCCCGTAGCACCGACCTGGAAAGCGAGCAAATGCTCCG (double strand) [PeryAI promoter fragment]
binding [1]: binds | binding [2]: binds
